Measurements published in US20050069530A1.

Molecular target: human type IIA sPLA2 (human) (UniProt P14555)
Test: cell-based or functional assay

Chain of human type IIA sPLA2 (human) (P14555 21-144): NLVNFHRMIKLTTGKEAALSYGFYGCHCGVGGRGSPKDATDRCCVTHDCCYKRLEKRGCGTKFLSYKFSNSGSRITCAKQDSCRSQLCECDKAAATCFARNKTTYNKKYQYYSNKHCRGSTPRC

Substance	IC50 of sPLA2 enzyme inhibition (3H-labelled E. coli membranes as substrate)	Mean % Inhibition at fixed peptide concentration [5 µM]
D65A-PIP (59-67) (peptide)	5.45 µM	
D65E-PIP (59-67) (peptide)	4.95 µM	
D65S-PIP (59-67) (peptide)	5.25 µM	
PIP (59-67) dimer (peptide)	1.19 µM	74.5%
